Assay results taken from publication PMC6994475.

What was measured:
Assay in all cases: EMSA
Settings in all cases: EMSA: 10 nM 6-FAM oligo, 50 mM HEPES pH 7.5, 250 mM NaCl, 1 mM DTT, 2.5 mM EDTA, 10% glycerol, on ice 10 min, 8% native PAGE; sumo-rA3G after heavy RNase A/T1 …
[1] = system: rA3G R24T (Macaca mulatta)
[2] = system: rA3G WT (parental construct, R8 K128D) (Macaca mulatta)
[3] = system: rA3G rM13 (Macaca mulatta)
[4] = system: rA3G rM14 (Macaca mulatta)
[5] = system: rA3G rM15 (Macaca mulatta)
[6] = system: rA3G E/Q (Macaca mulatta)
[7] = system: rA3G rM12 (Macaca mulatta)
[8] = system: rA3G rM11 (Macaca mulatta)
[9] = system: rA3G rM9 (Macaca mulatta)
[10] = system: rA3G rM10 (Macaca mulatta)

Substance	Kd [1]	Kd [2]	Kd [3]	Kd [4]	Kd [5]	Kd [6]	Kd [7]	Kd [8]	Kd [9]	Kd [10]
50 nt ssDNA	51 nM	24 nM	155 nM	102 nM	71 nM	10 nM	188 nM	89 nM	74 nM	53 nM
50 nt ssRNA	21 nM	22 nM	43 nM	15 nM	21 nM	19 nM	52 nM	21 nM	20 nM	24 nM
